# Experiment: soluble on expression in E. coli; label from the status in PepcDB or PDB records
row,Sequence,soluble on expression in E. coli
1,MPKMDVKGIAVTVYSENAMDFISLTDMLRAKDGDFFISDWLRNRNTVEFLGIWEQVHNPNFNYGEFATIRSQAGLNSYKISVKEWVARTHAIGLVAKAGRYGGTYAHKDIAFEFGMWISAEFKIYLIKEFQRLKEAEQQQLGWDIRRNLTKINYRIHTDAIQTNLIPPALTQSQISLIYASEADLLNMALFGKTAKQWREENPNNKGNIRDEANVSQLVCLANLETLNAHFIHQGLPQVERLKILNQTAIHQMKLLLADRSLKQLDGN,not soluble
2,SRIVAPPKNYPDSSQHEWVSLTRISKNMQLAVIATEDQKFPHHYGVDFESLFDVISEAGDHGPSRGASTITQQAAKNVFLFPSHSYVRKAYELYFALLMELMWSKERILEVYLNVVEFGPGIYGAEAAAQNYFGVSAKQLSKWQAARLAVVLPNPYRIKVYPQSDYTARRTRWAMNQMSNLGSVQL,not soluble
3,MLLGEGAFGQVFKGILRGPNGQVIPVAVKQLKANAIDEEREEFVREIQMMQTVGQHDNIVTMYGYCMDEQLQCMIMEYVPYGDLKHYLQNMRKEKDSDSAIDSKEFLSFTNQIACGMAHLESVGIIHRDLAARNILVGTGKVLKISDFGMSRPGVYIKMSKGVIPLRWLSPEAIKDNTYSNKSDVWAFGVLLWEIATLGGFPYNNVADKDILNQLTEGMRLEQPAKCSDDMYILMKSCWNLKAEDRPSFLAILSKIEQIANVDADAPPSDPPAKDV,not soluble
4,MSLKSSFYYHRTMLGDKDKYADLKQRITALYHKHKGRYGYRRMTVALKHLGVHHNHKLIAKLMKQLTLSAKIRRQKYRSYKGQQGKIAKNYLKRRFKASKPHKRWLTDITEFKVGDHKLYLSPILDCYNNEIVSYTLSRRPTYDLVSQMLDKALDKTGKHRHKTLMLHSDQGWHYQMKPFREMLKKHQIKQSMSRKGNCLDNALMEGFFGTLKCETIYIEKPKTIEALERQIHEYIHYYNHERIQLKLKGLSPVQYRTQSLKEGHHHHHH,not soluble
5,SVLLQMTQRLALSDAHFRRICQLIYQRAGIVLADHKRDMVYNRLVRRLRALGLDDFGRYLSMLEANQNSAEWQAFINALTTNLTAFFREAHHFPILAEHARRRHGEYRVWSAAASTGEEPYSIAITLADALGMAPGRWKVFASDIDTEVLEKARSGIYRLSELKTLSPQQLQRYFMRGTGPHEGLVRVRQELANYVEFSSVNLLEKQYNVPGPFDAIFCRNVMIYFDKTTQEDILRRFVPLLKPDGLLFAGHSENFSNLVREFSLRGQTVYALS,soluble
6,MVAEVSPKLAASPMKKPFGFRGKMGKWCCCCFPCCRGSGKNNMGAWRDHDDSAFTEPRYHVRREDLGKLHRAAWWGEVPRADLIVMLRGPGINKRDKKKRTALHLACANGNSEVVSLLLDRQCQLHVFDSKKRTALIKAVQCQEDECALMLLQHGTDPNLPDMYGNTALHYAVYNEDKLMAKTLLLYGADIESKNKGGLTPLLLAVHGQKQRMVKFLIKKKANLNALDRFGRTALILAVRCGSASIVSLLLQQNIDVFSQDVFGQTAEDYAVSSHHSIICQLLSDYKENQMPNNSSGNSNPEQDLKLTSEEEPQRLKGSENSQHEKVTQEPDINKDCDREVEEEMQKHGSNNVGLSENLTDGAAAGNGDGGLVPQRKSRKHENQQFPNTEIEEYHRPEKKSNEKNKVKSQIHSVDNLDDITWPSEIASEDYDLLFSNYETFTLLIEQLKMDFNDSASLSKIQDAVISEEHLLELKNSHYEQLTVEVEQMENMVHVLQK,not soluble
7,NKDMSFTVRGNYTFSQNIIDYYEENKLPYDYLSVTGKPFNILRGYIAEGLFSSKEEINTSADQSGFGRIRPGDIKYRDVNGDGIINDDDKVPLSYSNQLPRVMYGFGADFHWKDLTLSFLFKGSAKVDYYRSGLGNDAGWIPFYNGELGNVIKLANNPKNRWTPAWYSGTTATENPHAEFPRLSYGGNTNNSQLSSFWKRNGSFLRFQELSLKYNLKTPWIKKTGLSSVDLEFVANNLFTIDKVKYFDPEQASANGAAYPIPATYTFQVYLKF,not soluble
8,SMSQIMYNYPAMLGHAGDMAGYAGTLQSLGAEIAVEQAALQSAWQGDTGITYQAWQAQWNQAMEDLVRAYHAMSSTHEANTMAMMARDTAEAAKWGG,soluble
9,MKPMSDYDIPTTENLYFQGAMVTTPGKPNDPDNPNNNYIKPTKVNKNKEGLNIDGKEVLAGSTNYYELTWDLDQYKGDKSSKEAIQNGFYYVDDYPEEALDVRPDLVKVADEKGNQVSGVSVQQYDSLEAAPKKVQDLLKKANITVKGAFQLFSADNPEEFYKQYVATGTSLVITDPMTVKSEFGKTGGKYENKAYQIDFGNGYATEVVVNNVPKITPKKDVTVSLDPTSENLDGQTVQLYQTFNYRLIGGLIPQNHSEELEDYSFVDDYDQAGDQYTGNYKTFSSLNLTMKDGSVIKAGTDLTSQTTAETDATNGIVTVRFKEDFLQKISLDSPFQAETYLQMRRIAIGTFENTYVNTVNKVAYASNTVRTTT,soluble
10,AHHHHHHGSKVVALLSSGIDSPVAIHLMASRGVEVYPLHFRQDEVKERKVRKVVKKLQEIHGEKVKDPHTVNAYEVQAPVFEKLKEIKKGKWTCVFCKYTMYIVAESYAKKVGASAIITGDSLGQVASQTLDNLLVISTATKLPVIRPLIGLDKEEIVKIAKEIGTFEISIEEEPPCPFVPKFPVVRAGLGEFQKILSQVKDKLPRGDL,soluble
11,MGPRFQPDDTLYKRRNTLKVEYVPDDIVGRDNEIEEYEAALQPIINGEYPDNIFIYGKTGVGKTAVTNFLLNELRESADHFEVDLTVISLNCDGLSTSYQAAISLVNNLRGHENHIAETGHPQSKVYRLLWNELNKLSGSVIIVLDEIDHITDDTFLYQITRADNNGYIDNIQLGVIGISNDSTFREQLDAKVQSSLCETEISFPPYGTEELQKVLEQRAEIAFHESALEDGVIPLCAALGRQDGGDARRAITLLRKAGDLARTENANSVTTDHVERAQEKLEAQQSMDIMRDLTEHEQLTLYALTTLAAEGETPARSRIVYQRYKELCEFQGREPRTARRMRSFLSDFEILNLTLSEMEHRGQDGGTYRQHELNRDIATVVDALQTIIGEFGAHQSIIEYLPDSGEEFATM,not soluble
12,MGSDKIHHHHHHMCNISHSQVQYLATKGDGDLPAGTAAGTGRTRTFTLEEARIWVQKVSDIYQTPLVTRLKEPDGKIIITAQLKGGSAKTTTTMCLAQGLSLRGRKVLVLDLDPQASLSELCGLYAEKDVTPEDTVLPYIYDQEIEGGLEARVQSTYWDGIDVIPAHTELIGAEFHLPAMQKMRPGFRFWTVLRQGLEPLRKKYDYILMDTSPSLSYLNLNALMAADAMVMPMVPENLDFISSLSFWRLFSDVSKSFIKYEKDKKYDFVSLILSRVDYGRNSSAPIVRAWAQSAYENWLHSIEVPASSVMSTGALAFSTVFDISSTHSASKSLQRVRQPLIDYCRWVDEIYSEKWRSAQ,not soluble
13,MSKEGDILKPEEETMEFPEGDKVKVILSKEDFEASLKEAGERLVAVDFSATWCGPCRTIRPFFHALSVKHEDVVFLEVDADNCEEVVRECAIMCVPTFQFYKKEEKVDELCGALKEKLEAVIAELK,soluble
14,RYWKPEFHPDNSKSIEEWTDEIHTTLQKIMPEVKSENETAELFLSGGVDSSYILAMSDIEKTGSCGYEEERFDESKLAQQTANILGCKNSRYIITPEEYFASVPYVMYHMEQPTGDASAIVFAIGCKAAAENTNICYSGEGADEFFGGYNIYHKAECYGENLKTFYIGNTNIMNEGEKRKILKKYNPDVLPIEVVKGIYEETEELDTLTNMSNVDIQIWLEGDIYFNIDKMSTAVGLEVRMPLTDTRIFDIASRIPSEYKVKGKENKIAFRTAASKTLPEEIAFRNKLGFIVPIRIWMADDQYNKDIRDKFNSEIADKFFNIDEINEIFNDYISGNSDNWRKIWMIYTFLVWYEIYFVKC,not soluble
15,MIRKWDTKDTAPLLALWLDSTIHAHPFISESYWRDSVAVVRDVYLPAASTWVWEQDGELKGFVSVLDSRFVGALFVAPGATRQGIGRALLDEVKQHYAWLSLEVYQKNESAVSFYHAQGFRIEDCAWQDDTQHPTWIMRWPADQMP,not soluble
16,MRTILIDWFSDAVREYISRKEAVHLAASLVDRALPMFNIDKMRFQLVGITSMRIAVKYEEIFPPILSNTRHSFDGAILYWKVRLHRRNAHTILDRIMLCTENELGVCRQLLTQGFATSYPSLA,not soluble
17,MSQSLFSLAFGVGTQNRQEAWLEVFYALPLLKPSSEIVAAVAPILGYAAGNQALTFTSQQAYQLADALKGIDAAQSALLSRLAESQKPLVATLLAEDAAPSSTAEAYLKLHLLSHRLVKPHAVNLSGIFPLLPNVAWTNIGAVDLAELAELQLEARLKGKLLEVFSVDKFPKMTDYVVPAGVRIADTARVRLGAYIGEGTTVMHEGFVNFNAGTEGPGMIEGRVSAGVFVGKGSDLGGGCSTMGTLSGGGNIVISVGEGCLIGANAGIGIPLGDRNIVEAGLYITAGTKVALLDEQNALVKVVKARDLAGQPDLLFRRNSQNGAVECK,not soluble
18,MLGVFQKRCASTAPLIRPIQRVLVANRGEIAIRVQNTARKMGIETVAVFSDADRNSLFVKKADKAYHIGPPLAAESYLNMDKIINSALRSGAQAIHPGYGFLSENAGFAEKCAQAGLVFIGPPAQAIRDMGAKNVSKQIMEDAKVPVVKGFHGEDQSDANLKKKSAEIGYPVMLKAVYGGGGKGMRIAWNEAEFEEKLASARNEAKKSFGNDEMLVEKFVEKPRHVEVQVFGDHHGNYVHLWERDCSVQRRHQKIIEEAPAPNMEHDTRVKLGESAVRAAAAVGYVGAGTVEFIMDPRGEFYFMEMNTRLQVEHPVSEAITGTDLVEWQLRVAQGEKLPLKQSEIPLNGHAFECRVYAEDTRKGAFMPTAGRLNYVDFPEDARIDTGVVSGDEVSIHYDPMIAKVVVWGQDRAVAAAKLESALARTRISGLPTNIDFVRRVLAHPEFAAGNVYTDFIPDHQKELFAESETPAEIYVESAVAHALAALQKSDAGVFQNLSFFRMNLSPKYIFKIDGKDVSIRFDSDSRLTVSYDGNSYETLLNDIESTTDGSFKFTLEANGRRWSTVVKNLGNSLMVNGVGQNEYETPQIHETFDSLSGGAASHSAVAPMPGIIEKILVKPGEQVTTGQALVVMTAMKMEYIIRAPEDSTVEHIKCQAGKNVPKNAVLVQFA,not soluble
19,MNKAIFLDRDGTLNIDYGYVHEIDNFKFIDGVIDALRELKKMGYMLVLVTNQSGIARGYFSEDQFLQLTEWMDWSLAEQDVDLDGIYYCPHHSEGKGEYKEDCDCRKPKSGMLLQAIKELKIDPTQSIMVGDKVEDLKAGIGAKVKMNVLVRTGKPVTGEGEGIADYVLDSIVDLPRILKRLKKLEHHHHHH,not soluble
20,MDIVQLGPAELKAWMDEGRMFCLLDVRTDEETAVCSLPNALHIPMNLIPLRQNELPDDVPLVVYCHHGIRSLHTAMYLADAGFENLYNLQGGIDAWAAEIDGNMMRY,not soluble
21,REEDPHEGKIWFHGKISKQEAYNLLMTVGQVCSFLVRPSDNTPGDYSLYFRTNENIQRFKICPTPNNQFMMGGRYYNSIGDIIDHYRKEQIVEGYYLKEPVPMQDQ,soluble
22,MGLSCTDDWRVIDLPGSFITVTNLNQFTLNGDGFAARMEMTLVAPDHGGDSDLIAMGELIEQAISGVRSLGGAIESIELNQQVTPPHGGKAPASTMTFTLFYDMENEE,not soluble
23,MRTRNMQDFEGPLPDLLESALTWVKQNAPTQNVYDSSGHMRKESVYPLPAVRELIANALVHRDLSPNSDGKWVEIRLCDDRLVISNPGGLRGVSVKQLESATLSKNAVNPRLYDIAKRVRTEGAGIQEVLRQTCQALLAKPQLIDTGVQFTAILYGASVFSEAELEWLRSIGGDGLTAVEKHLLVGLRKGESWHLSRILNEFSPITVAEAEKLMHGLKKRGFIESDNKTFTLGAHSENQAPRVEKEETTLAKITKNAPTIAHALELKPEQSFEELLRTTGLSQGQLRFALDKLQAVGLVVREGGWGVHGTTYHWSAQT,not soluble

# Source: the DeepSol protein solubility set
